# According to paper PMC4978220:
# Target: full-length PbgA protein with a carboxyl-terminal 6XHis tag (S. Typhimurium)
# Assay: SEC-MALS
substance,measurement,value
full-length PbgA protein with a carboxyl-terminal 6XHis tag (natural protein),stoichiometry N,4
